B1: HER2/neu peptide, position 948, 10 amino acids (peptide)
peptide: TIDVYMIMVK
notes: Synthetic A3 supermotif peptide
B2: Her2/neu.166 (10 amino acids) (peptide)
peptide: TILWKDIFHK
notes: Synthetic A3 supermotif peptide; also called HER2/neu peptide, position 166, 10 amino acids
B3: HER2/neu peptide, position 840, 10 amino acids (peptide)
peptide: RLVHRDLAAR
notes: as for B1
B4: HER2/neu peptide, position 423, 10 amino acids (peptide)
peptide: SVFQNLQVIR
notes: as for B1
B5: HER2/neu peptide, position 713, 10 amino acids (peptide)
peptide: RILKETELRK
notes: as for B1
B6: HER2/neu peptide, position 745, 9 amino acids (peptide)
peptide: NVKIPVAIK
notes: as for B1
B7: HER2/neu peptide, position 851, 10 amino acids (peptide)
peptide: VLVKSPNHVK
notes: as for B1
B8: HER2/neu peptide, position 24, 9 amino acids (peptide)
peptide: QVCTGTDMK
notes: as for B1
B9: HER2/neu peptide, position 1102, 10 amino acids (peptide)
peptide: PTHDPSPLQR
notes: H was used here
B10: HER2/neu peptide, position 795, 9 amino acids (peptide)
peptide: QLVTQLMPY
B11: HER2/neu peptide, position 1119, 9 amino acids (peptide)
peptide: PLPSETDGY
B12: HER2/neu peptide, position 24, 9 amino acids (peptide)
peptide: QVCTGTDMK
B13: HER2/neu peptide, position 1130, 10 amino acids (peptide)
peptide: PLTCSPQPEY
B14: HER2/neu peptide, position 95, 9 amino acids (peptide)
peptide: PLQRLRIVR
B15: HER2/neu peptide, position 90, 9 amino acids (peptide)
peptide: QVRQVPLQR
B16: HER2/neu peptide, position 491, 9 amino acids (peptide)
peptide: QALLHTANR
B17: HER2/neu peptide, position 601, 10 amino acids (peptide)
peptide: PSGVKPDLSY
B18: HER2/neu peptide, position 996, 10 amino acids (peptide)
peptide: PASPLDSTFY
B19: HER2/neu peptide, position 874, 10 amino acids (ETEYHADGGK) (peptide)
peptide: ETEYHADGGK
notes: Synthetic peptide
B20: HER2/neu peptide, position 962, 9 amino acids (DSECRPRFR) (peptide)
peptide: DSECRPRFR
notes: Synthetic peptide
B21: HER2/neu peptide, position 607, 9 amino acids (DLSYMPIWK) (peptide)
peptide: DLSYMPIWK
notes: Synthetic peptide
B22: HER2/neu peptide, position 280, 9 amino acids (ESMPNPEGR) (peptide)
peptide: ESMPNPEGR
notes: Synthetic peptide
B23: HER2/neu peptide, position 914, 10 amino acids (ELMTFGAKPY) (peptide)
peptide: ELMTFGAKPY
notes: Synthetic peptide

Molecular target: HLA-A*3301 (human)
Assay: inhibition of 125I-labelled standard peptide binding to purified HLA, gel filtration

Compared with B1, B2 is higher in relative binding ratio: 0.012 ratio (IC50 of standard peptide / IC50 of test peptide) for the first, 0.042 ratio (IC50 of standard peptide / IC50 of test peptide) for the second.

Compared with B3, B4 is higher in relative binding ratio: 0.0021 ratio (IC50 of standard peptide / IC50 of test peptide) for the first, 0.039 ratio (IC50 of standard peptide / IC50 of test peptide) for the second.

Going from B5 to B6, the relative binding ratio rises from 0.0013 ratio (IC50 of standard peptide / IC50 of test peptide) to 0.082 ratio (IC50 of standard peptide / IC50 of test peptide).

First: B7
Second: B8
The relative binding ratio of the first is higher: 0.0032 ratio (IC50 of standard peptide / IC50 of test peptide) for the first, 0.0006 ratio (IC50 of standard peptide / IC50 of test peptide) for the second.

Molecular target: HLA-A*1101 (human)
Assay: as above

First: B1
Second: B2
The relative binding ratio of the first is lower: 0.12 ratio (IC50 of standard peptide / IC50 of test peptide) for the first, 3.6 ratio (IC50 of standard peptide / IC50 of test peptide) for the second.

First: B3
Second: B4
The relative binding ratio of the first is lower: 0.0001 ratio (IC50 of standard peptide / IC50 of test peptide) for the first, 0.075 ratio (IC50 of standard peptide / IC50 of test peptide) for the second.

Compared with B5, B6 is lower in relative binding ratio: 0.11 ratio (IC50 of standard peptide / IC50 of test peptide) for the first, 0.0007 ratio (IC50 of standard peptide / IC50 of test peptide) for the second.

Going from B7 to B8, the relative binding ratio rises from 0.0072 ratio (IC50 of standard peptide / IC50 of test peptide) to 0.052 ratio (IC50 of standard peptide / IC50 of test peptide).

Molecular target: HLA-A*0301 (human)
Assay: as above

First: B1
Second: B2
The relative binding ratio of the first is lower: 0.013 ratio (IC50 of standard peptide / IC50 of test peptide) for the first, 0.043 ratio (IC50 of standard peptide / IC50 of test peptide) for the second.

First: B3
Second: B4
The relative binding ratio of the first is higher: 0.18 ratio (IC50 of standard peptide / IC50 of test peptide) for the first, 0.017 ratio (IC50 of standard peptide / IC50 of test peptide) for the second.

Going from B5 to B6, the relative binding ratio falls from 0.057 ratio (IC50 of standard peptide / IC50 of test peptide) to 0.0058 ratio (IC50 of standard peptide / IC50 of test peptide).

Compared with B7, B8 is lower in relative binding ratio: 0.082 ratio (IC50 of standard peptide / IC50 of test peptide) for the first, 0.0007 ratio (IC50 of standard peptide / IC50 of test peptide) for the second.

Molecular target: HLA-A*6801 (human)
Assay: as above

First: B1
Second: B2
The relative binding ratio of the first is lower: 0.025 ratio (IC50 of standard peptide / IC50 of test peptide) for the first, 0.04 ratio (IC50 of standard peptide / IC50 of test peptide) for the second.

Compared with B3, B4 is higher in relative binding ratio: 0.0036 ratio (IC50 of standard peptide / IC50 of test peptide) for the first, 0.25 ratio (IC50 of standard peptide / IC50 of test peptide) for the second.

Compared with B5, B6 is higher in relative binding ratio: 0.0002 ratio (IC50 of standard peptide / IC50 of test peptide) for the first, 0.12 ratio (IC50 of standard peptide / IC50 of test peptide) for the second.

Going from B7 to B8, the relative binding ratio rises from 0.0005 ratio (IC50 of standard peptide / IC50 of test peptide) to 0.011 ratio (IC50 of standard peptide / IC50 of test peptide).

Molecular target: HLA-A*3101 (human)
Assay: as above

Compared with B1, B2 is higher in relative binding ratio: 0.0018 ratio (IC50 of standard peptide / IC50 of test peptide) for the first, 0.037 ratio (IC50 of standard peptide / IC50 of test peptide) for the second.

Going from B3 to B4, the relative binding ratio falls from 0.95 ratio (IC50 of standard peptide / IC50 of test peptide) to 0.034 ratio (IC50 of standard peptide / IC50 of test peptide).

Compared with B5, B6 is lower in relative binding ratio: 0.0055 ratio (IC50 of standard peptide / IC50 of test peptide) for the first, 0.0015 ratio (IC50 of standard peptide / IC50 of test peptide) for the second.

First: B7
Second: B8
The relative binding ratio of the first is higher: 0.0052 ratio (IC50 of standard peptide / IC50 of test peptide) for the first, 0.0002 ratio (IC50 of standard peptide / IC50 of test peptide) for the second.

Molecular target: T1, HLA-A*0301 (human)
T1 construct: also called HLA-A3
Assay: inhibition of 125I-labelled standard peptide 941.12 binding to purified HLA-A*0301, gel filtration

Going from B9 to B10, the “relative binding ratio (IC50 of standard peptide / IC50 of test peptide)” value rises from 0.0003 ratio to 0.011 ratio.

First: B11
Second: B12
The “relative binding ratio (IC50 of standard peptide / IC50 of test peptide)” value of the first is lower: 0.0002 ratio for the first, 0.0007 ratio for the second.

B13 and B14 are the same in “relative binding ratio (IC50 of standard peptide / IC50 of test peptide)” value: 0.0002 ratio for the first, 0.0002 ratio for the second.

Going from B15 to B16, the “relative binding ratio (IC50 of standard peptide / IC50 of test peptide)” value rises from 0.0029 ratio to 0.0046 ratio.

B17 and B18 are the same in “relative binding ratio (IC50 of standard peptide / IC50 of test peptide)” value: 0.0003 ratio for the first, 0.0003 ratio for the second.

Molecular target: T2, HLA-A*0301 (human)
T2 construct: also called HLA-A3
Assay: competition with 125I-labelled probe peptide for purified HLA-A*0301, gel filtration; ratio to standard peptide 941.12

First: B19
Second: B20
The “relative binding ratio (IC50 of standard peptide / IC50 of test peptide)” value of the first is higher: 0.0003 ratio for the first, -0.0002 ratio for the second.

Compared with B21, B22 is lower in “relative binding ratio (IC50 of standard peptide / IC50 of test peptide)” value: 0.0005 ratio for the first, 0.0003 ratio for the second.

B23 was tested, and the “relative binding ratio (IC50 of standard peptide / IC50 of test peptide)” value was 0.0002 ratio.

Reference: patent publication US20040018971A1 (published 2004)
